Laboratory results taken from PMC9143231, “Parapoxvirus Interleukin-10 Homologues Vary in Their Receptor Binding, Anti-Inflammatory, and Stimulatory Activities” (Pathogens, 2022).

Experiments:
[1] = target: hIL-10R1-Fc chimeric protein (extracellular domain of human IL-10 receptor 1 fused to Fc) (human) (UniProt Q13651); experiment: ELISA; competitive displacement ELISA: hIL-10 (400 ng/mL) coated on Maxisorp wells; serially diluted IL-10 preincubated with 300 ng/mL hIL-10R1-Fc in PBS, 0.4% BSA, 0.02% Tween20 at 25 °C for 1 h, then transferred to the coated wells for 1 h at 25 °C; free hIL-10R1-Fc detected with anti-human IgG
[2] = target: hIL-10R1-Fc chimeric protein (extracellular domain of human IL-10 receptor 1 fused to Fc) (human) (UniProt Q13651); experiment: ELISA; […] (400 ng/mL) […]
[3] = target: Orf virus interleukin-10, FLAG-tagged (Orf virus); experiment: non-reducing SDS-PAGE with anti-FLAG Western blot
[4] = target: Pseudocowpox virus interleukin-10, FLAG-tagged (Pseudocowpox virus); experiment: non-reducing SDS-PAGE with anti-FLAG Western blot; purified FLAG-tagged IL-10 mixed with SDS-PAGE sample buffer without DTT, without boiling; bands detected with HRP-conjugated anti-FLAG M2
[5] = target: hIL-10R1-Fc chimeric protein (extracellular domain of human IL-10 receptor 1 fused to Fc) (human) (UniProt Q13651)
[6] = target: hIL-10R1-Fc chimeric protein (extracellular domain of human IL-10 receptor 1 fused to Fc) (human) (UniProt Q13651); remark: listed apart in the source
[7] = target: T1, hIL-10R1-Fc chimeric protein (extracellular domain of human IL-10 receptor 1 fused to Fc) (human, UniProt Q13651 22-235); experiment: ELISA; competitive displacement ELISA: hIL-10 (400 ng/mL) coated on Maxisorp wells; serially diluted IL-10 preincubated with 300 ng/mL hIL-10R1-Fc in PBS, 0.4% BSA, 0.02% Tween20 at 25 °C for 1 h, then transferred to the coated wells for 1 h at 25 °C; free hIL-10R1-Fc detected with anti-human IgG; details: both partners purified
T1 construct: human interleukin-10 receptor subunit 1 (IL-10R1), extracellular domain; No catalogue number printed; also called soluble hIL-10R1-Fc fusion protein; source: bought: R&D Systems
T1 sequence: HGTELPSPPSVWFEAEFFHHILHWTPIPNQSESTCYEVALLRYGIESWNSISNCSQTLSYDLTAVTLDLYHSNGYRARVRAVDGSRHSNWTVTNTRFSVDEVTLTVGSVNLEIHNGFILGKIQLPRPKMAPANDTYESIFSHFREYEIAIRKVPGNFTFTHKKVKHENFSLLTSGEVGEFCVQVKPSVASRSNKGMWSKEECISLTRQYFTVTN

Red deerpox virus interleukin-10, FLAG-tagged (ligand)
Emax (Δ%) of hIL-10R1-Fc displacement, relative to hIL-10 [1]: 108 Δ%
pIC50 (negative log10 of the IC50) [1]: 9.51 M

Orf virus interleukin-10, FLAG-tagged (ligand)
Emax (Δ%) of hIL-10R1-Fc displacement, relative to hIL-10 [2]: 105 Δ%
pIC50 (negative log10 of the IC50) [2]: 9.24 M
stoichiometry N [3]: 2

Pseudocowpox virus interleukin-10, FLAG-tagged (ligand)
stoichiometry N [4]: 2
Emax (Δ%) of hIL-10R1-Fc displacement, relative to hIL-10 [1]: 94.6 Δ%
pIC50 (negative log10 of the IC50) [1]: 7.66 M

Bovine papular stomatitis virus interleukin-10, FLAG-tagged (ligand)
Emax (Δ%) of hIL-10R1-Fc displacement, relative to hIL-10 [1]: 98.7 Δ%
pIC50 (negative log10 of the IC50) [1]: 8.72 M

Grey sealpox virus interleukin-10, FLAG-tagged (ligand)
Emax (Δ%, relative to hIL-10) of inhibition of IL-1β production by LTA-stimulated human THP-1 monocytes, 48 h [5]: 25.8 Δ%
Emax (Δ%, relative to hIL-10) of inhibition of IL-8 production by LTA-stimulated human THP-1 monocytes, 24 h (pIC50 ND) [5]: 50.1 Δ%
Emax (Δ%, relative to hIL-10) of inhibition of MCP-1 production by LTA-stimulated human THP-1 monocytes, 24 h (pIC50 ND) [5]: 31 Δ%
pIC50 (M) of inhibition of IL-1β production by LTA-stimulated human THP-1 monocytes, 48 h [5]: 11 M (pIC50)
Emax (Δ%, relative to hIL-10) of stimulation of murine MC/9 mast cell proliferation (with IL-3 and IL-4), 48 h [6]: 25.8 Δ%
pEC50 (M) of stimulation of murine MC/9 mast cell proliferation (with IL-3 and IL-4), 48 h [6]: 9.3 M (pEC50)

B1: human interleukin-10, FLAG-tagged (ligand, UniProt P22301 19-178, looked up)
chain: SPGQGTQSENSCTHFPGNLPNMLRDLRDAFSRVKTFFQMKDQLDNLLLKESLLEDFKGYLGCQALSEMIQFYLEEVMPQAENQDPDIKAHVNSLGENLKTLRLRLRRCHRFLPCENKSKAVEQVKNAFNKLQEKGIYKAMSEFDIFINYIEAYMTMKIRN
notes: also called hIL-10; human IL-10; not shown: FLAG, C-terminal, kept
Emax (Δ%) of hIL-10R1-Fc displacement, relative to hIL-10 [7]: 100 Δ%
pIC50 (negative log10 of the IC50) [7]: 8.79
